Measurements reported in US20160161469A1, “SYNTHETIC MICROFLUIDIC SYSTEMS FOR WOUND HEALING” (CFD Research Corporation, priority 2013, published 2016).

System: whole blood
Assay: Varying concentrations assay of hemostatic agent in the microfluidic hemostasis device (coagulation time at the vascular injury site)
Type: cell-based
From the text: Biomolecules such as tissue factor (TF) can be used as a surrogate for hemostatic agents. TF is the primary cellular initiator of blood coagulation via the extrinsic pathway. After vessel injury, the TF:VIIa complex activates the coagulation protease cascade, which leads to fibrin deposition and activation of platelets (see FIGS. 7-8). TF expression by nonvascular cells plays an essential role in hemostasis by activating blood coagulation. In contrast, TF expression by vascular cells induces intravascular thrombosis. […] TF can be allowed to adhere to the surface of the channels by incubating at 37° C. and 5% CO2. Saline wash can be initiated to wash off any residual TF.
In order to mimic these conditions observed, TNF-α at a concentration of 10 μg/ml can be injected near the wound site of the tissue channel (e.g., outer channel) from the top inlet of the device. It should be noted that endothelial cells cultured in the vascular channel (e.g., central channel) can grow near the wound site opening, and also into the tissue area. Injection of TNF-α can activate the endothelial cells adjacent to the injection site to start expressing TF. At about 8 hour after activation, hemostasis restoration experiments can be initiated.
Whole blood can be kept anticoagulated using corn trypsin inhibitor (CTI). […] The time taken to completely repair (block) the opening can be recorded (FIG. 8). […]

B1: Tissue factor: primary cellular initiator of blood coagulation via the extrinsic pathway, used as a surrogate for hemostatic agents (protein, UniProt P13726 33-295, looked up)
Tissue factor: SGTTNTVAAYNLTWKSTNFKTILEWEPKPVNQVYTVQISTKSGDWKSKCFYTTDTECDLTDEIVKDVKQTYLARVFSYPAGNVESTGSAGEPLYENSPEFTPYLETNLGQPTIQSFEQVGTKVNVTVEDERTLVRRNNTFLSLRDVFGKDLIYTLYYWKSSSSGKKTAKTNTNEFLIDVDKGENYCFSVQAVIPSRTVNRKSTDSPVECMGQEKGEFREIFYIIGAVVFVVIILVIILAISLHKCRKAGVGQSWKENSPLNVS
- time to coagulate (coagulation time of the whole blood at the vascular injury site) (Tissue factor at higher concentration of 10 μg/ml (extreme dose scenario)): less than 5 minutes
- time to coagulate (coagulation time of the whole blood at the vascular injury site) (Tissue factor coated at 10 ng/ml in the tissue channel): ≥ 5 min
